Three molecules from patent EP4471063A1 (Medilink Therapeutics (Suzhou) Co., Ltd., dated 2023) can be followed below.

The target of assay [1] is T1, human Her3 on tumor cells (human, UniProt P21860 20-1342). Briefly: cell-based or functional assay.
The target in assay [2] is T2, human Her2-His (human, UniProt P04626 23-652).
T2 construct: Bought protein
The assay is described as follows: ELISA, coated human Her2-His.

Assay [3] concerns the target T3, human EGFR-His (human, UniProt P00533 25-645).
T3 construct: Bought protein
Briefly: ELISA, coated EGFR-his, antibody 1000 ng/mL.

Assay [4] concerns the target T3, human EGFR-His. The assay is described as follows: ELISA, coated human EGFR-His.
In the next assay the target is T4, monkey Her3-his (monkey).
T4 chain: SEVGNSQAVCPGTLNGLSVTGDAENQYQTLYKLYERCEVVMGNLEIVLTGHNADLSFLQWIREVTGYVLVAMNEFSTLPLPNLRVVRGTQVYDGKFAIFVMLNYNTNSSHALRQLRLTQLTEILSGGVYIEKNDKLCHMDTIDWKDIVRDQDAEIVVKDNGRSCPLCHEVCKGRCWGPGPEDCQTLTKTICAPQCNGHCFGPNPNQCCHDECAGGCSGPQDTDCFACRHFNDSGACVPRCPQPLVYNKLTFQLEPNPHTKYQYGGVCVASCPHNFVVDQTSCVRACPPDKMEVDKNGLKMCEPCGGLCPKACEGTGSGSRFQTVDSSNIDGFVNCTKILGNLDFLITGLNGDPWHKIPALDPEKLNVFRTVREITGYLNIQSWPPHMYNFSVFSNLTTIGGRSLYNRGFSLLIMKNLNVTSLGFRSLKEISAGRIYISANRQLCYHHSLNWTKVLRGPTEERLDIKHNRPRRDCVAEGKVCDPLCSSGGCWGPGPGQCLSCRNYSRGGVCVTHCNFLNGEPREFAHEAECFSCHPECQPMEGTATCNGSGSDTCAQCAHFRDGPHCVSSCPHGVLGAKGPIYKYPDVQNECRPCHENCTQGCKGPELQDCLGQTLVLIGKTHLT
The assay is described as follows: ELISA, coated monkey Her3-his, anti-human Fc-HRP.

Assay [5] addresses T5, human Her4-His (human, UniProt Q15303 26-649, limits assumed).
T5 construct: Bought protein
T5 sequence (looked up): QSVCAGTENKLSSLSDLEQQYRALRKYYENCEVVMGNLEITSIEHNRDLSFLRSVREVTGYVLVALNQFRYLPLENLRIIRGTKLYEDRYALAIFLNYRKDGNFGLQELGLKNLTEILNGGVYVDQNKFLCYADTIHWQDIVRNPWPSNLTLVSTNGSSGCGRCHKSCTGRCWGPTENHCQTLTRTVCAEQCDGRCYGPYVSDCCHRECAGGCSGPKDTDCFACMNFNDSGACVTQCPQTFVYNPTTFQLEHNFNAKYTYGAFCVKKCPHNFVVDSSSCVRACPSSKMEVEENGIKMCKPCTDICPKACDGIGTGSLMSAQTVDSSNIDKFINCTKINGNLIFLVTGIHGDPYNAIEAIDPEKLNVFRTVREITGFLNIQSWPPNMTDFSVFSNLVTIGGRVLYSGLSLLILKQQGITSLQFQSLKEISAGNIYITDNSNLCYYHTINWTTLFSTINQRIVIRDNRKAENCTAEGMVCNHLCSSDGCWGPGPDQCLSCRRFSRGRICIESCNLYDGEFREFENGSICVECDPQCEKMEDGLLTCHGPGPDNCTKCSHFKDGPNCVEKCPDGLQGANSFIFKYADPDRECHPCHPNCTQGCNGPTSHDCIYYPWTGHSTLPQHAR
Briefly: ELISA, coated Her4-his, antibody 1000 ng/mL.

For assay [6], the target named is T5, human Her4-His. The assay is described as follows: ELISA, coated Her4-his, antibody 200 ng/mL.
For assay [7], the target named is T6, human Her3-his (human, UniProt P21860 20-643).
T6 construct: Construct encodes positions 1-643 with its own leader; Expressed in HEK293F, purified on a Ni column; also called human Her3 protein
The assay is described as follows: ELISA, coated human Her3-his, anti-human Fc-HRP.

Assay [8] has as its target T2, human Her2-His. Briefly: ELISA, coated Her2-his, antibody 1000 ng/mL.
The target in assay [9] is T5, human Her4-His. Briefly: ELISA, coated human Her4-His.
In assay [10] the target is T1, human Her3 on tumor cells. The assay is described as follows: flow cytometry, A549-human Her3 tumor cells.
Assay [11] has as its target T1, human Her3 on tumor cells. Briefly: flow cytometry, T47D tumor cells.
For assay [12], the target named is T3, human EGFR-His. The assay is described as follows: ELISA, coated EGFR-his, antibody 200 ng/mL.
For assay [13], the target named is T3, human EGFR-His. Briefly: ELISA, coated EGFR-his, antibody 40 ng/mL.
In assay [14] the target is T6, human Her3-his. Briefly: BLI (Fortibio), antibody on ProteinA sensor, human Her3-His in solution, 1:1 model.
Assay [15] addresses T6, human Her3-his. Briefly: ELISA, coated Her3-his, antibody 1000 ng/mL.
Assay [16] deals with T6, human Her3-his. Briefly: ELISA, coated Her3-his, antibody 40 ng/mL.
Assay [17] has as its target T2, human Her2-His. Briefly: ELISA, coated Her2-his, antibody 40 ng/mL.
The target in assay [18] is T6, human Her3-his. The assay is described as follows: ELISA, coated Her3-his, antibody 200 ng/mL.
For assay [19], the target named is T2, human Her2-His. The assay is described as follows: ELISA, coated Her2-his, antibody 200 ng/mL.
Assay [20] deals with T5, human Her4-His. Briefly: ELISA, coated Her4-his, antibody 40 ng/mL.
A further assay has as its target T7, rat Her3-his (rat).
T7 chain: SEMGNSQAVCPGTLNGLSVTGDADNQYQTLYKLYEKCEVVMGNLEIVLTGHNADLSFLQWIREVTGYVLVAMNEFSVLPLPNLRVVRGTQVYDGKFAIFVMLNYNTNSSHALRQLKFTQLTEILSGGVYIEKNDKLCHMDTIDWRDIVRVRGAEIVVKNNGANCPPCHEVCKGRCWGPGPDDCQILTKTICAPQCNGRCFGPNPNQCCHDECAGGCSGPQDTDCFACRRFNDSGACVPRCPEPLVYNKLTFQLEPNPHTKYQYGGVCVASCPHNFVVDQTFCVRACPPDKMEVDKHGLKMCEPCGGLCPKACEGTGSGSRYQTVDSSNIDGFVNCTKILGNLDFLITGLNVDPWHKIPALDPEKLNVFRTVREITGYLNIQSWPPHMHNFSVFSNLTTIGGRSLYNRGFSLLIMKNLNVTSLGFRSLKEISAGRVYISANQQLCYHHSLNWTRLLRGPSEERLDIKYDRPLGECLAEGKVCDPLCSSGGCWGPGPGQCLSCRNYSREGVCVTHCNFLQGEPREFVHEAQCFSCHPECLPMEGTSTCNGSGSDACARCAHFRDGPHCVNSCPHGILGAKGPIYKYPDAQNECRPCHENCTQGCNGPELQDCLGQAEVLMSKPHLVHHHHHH
The assay is described as follows: ELISA, coated rat Her3-his, anti-human Fc-HRP.

B1: antibody 202-2-1 (antibody, human IgG1, kappa, V domains shown)
VH: EVQLVESGGGVVQPGRSLRLSCAASGFTFSTYGMHWVRQAPGKGLEWVAVIWYDVSHKYYADSVKGRFTISRDNSKNTLSLQMNSLRAEDTAVYYCARDWGDPDAFDIWGQGTMVTVSS
VL: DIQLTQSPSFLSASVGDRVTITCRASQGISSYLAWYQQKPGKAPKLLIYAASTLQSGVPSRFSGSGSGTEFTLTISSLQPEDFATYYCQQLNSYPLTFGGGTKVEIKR
notes: Fully human IgG1/kappa from a phage scFv library; expressed in HEK293F; also called Her3mAb
Turning to B1, the “IC50 of inhibition of NRG1-induced AKT phosphorylation in MCF-7 cells (cell blotting, anti-Phospho Akt Ser473)” value in assay [1] was 0.243 nM. For the same molecule, the binding result with human Her2-His [2] is “no binding (tested: 1 µg/mL, 200 ng/mL, and 40 ng/mL)”; with human EGFR-His [4], “no binding (tested: 1 µg/mL, 200 ng/mL, and 40 ng/mL)”; with human Her4-His [9] it was “no binding (tested: 1 µg/mL, 200 ng/mL, and 40 ng/mL)”. In addition, the OD450 was 0.051 in the assay with human EGFR-His [3]; 0.051 with human Her4-His [5]; 0.051 with human Her4-His [6]; 0.049 with human Her2-His [8]; 0.051 in the assay with human EGFR-His [12]; 0.051 in the assay with human EGFR-His [13]. Besides, the OD450 with human Her3-his [15] was 0.61; with human Her3-his [16], 0.573; with human Her2-His [17], 0.049; in the assay with human Her3-his [18] it was 0.695; in the assay with human Her2-His [19], 0.05; with human Her4-His [20], 0.05. Further, the EC50 with monkey Her3-his worked out at 0.0159 nM; with human Her3-his [7] it was 0.021 nM; in assay [10], 1.15 nM; in [11] it was 0.08 nM. Further, the “Maximum MFI” value in assay [10] is 63800 MFI. Binding with human Her3-his [14] was characterised by a dissociation constant (Kd) of 13.1 nM. The molecule also showed a koff in the assay with human Her3-his [14] of 0.00218 s⁻¹. The molecule further returned a kon in the assay with human Her3-his [14] of 167000 M⁻¹ s⁻¹.

B2: antibody 202-3-1 (antibody, human IgG1, kappa, V domains shown)
VH: QVQLQESGPGLVKPSETLSLTCTVSGGSISGYFWSWIRQSPGKGLEWIGYIHYSGRTNYNPSLKSRVTISVDTSKNQFSLKLSSVTAADTAVYYCARETGGSGHWYFDLWGRGNLVTVSS
VL: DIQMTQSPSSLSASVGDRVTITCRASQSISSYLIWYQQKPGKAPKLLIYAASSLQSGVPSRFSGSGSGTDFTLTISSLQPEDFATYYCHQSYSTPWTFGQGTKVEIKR
As to B2, in [1], the “IC50 of inhibition of NRG1-induced AKT phosphorylation in MCF-7 cells (cell blotting, anti-Phospho Akt Ser473)” value was 1.04 nM. The binding result was “no binding (tested: 1 µg/mL, 200 ng/mL, and 40 ng/mL)” with human Her2-His [2]; “no binding (tested: 1 µg/mL, 200 ng/mL, and 40 ng/mL)” in the assay with human EGFR-His [4]; “no binding (tested: 1 µg/mL, 200 ng/mL, and 40 ng/mL)” with human Her4-His [9]. Moreover, the OD450 was 0.05 with human EGFR-His [3]; 0.05 with human Her4-His [5]; 0.051 in the assay with human Her4-His [6]; 0.048 with human Her2-His [8]; 0.05 with human EGFR-His [12]; 0.055 in the assay with human EGFR-His [13]. Besides, the OD450 in the assay with human Her3-his [15] came to 0.333; with human Her3-his [16], 0.281; in the assay with human Her2-His [17], 0.052; in the assay with human Her3-his [18], 0.344; in the assay with human Her2-His [19], 0.049; with human Her4-His [20], 0.049. For the same molecule, the EC50 is 0.0396 nM with monkey Her3-his, 0.154 nM with rat Her3-his, 0.0606 nM with human Her3-his [7] and 2.04 nM in [10]. In addition, in assay [10], the “Maximum MFI” value came out at 55700 MFI. Also, the Kd in the assay with human Her3-his [14] was 7.79 nM. The molecule also displayed a koff with human Her3-his [14] of 0.00142 s⁻¹. The molecule further had a kon with human Her3-his [14] of 182000 M⁻¹ s⁻¹.

B3: antibody 202-3-2 (antibody, human IgG1, kappa, V domains shown)
VH: QVQLQESGPGLVKPSETLSLTCTVSGGSISGYFWSWIRQSPGQGLEWIGYIHYSGRTNYNPSLKSRVTISVDTSKNQFSLQLSSVTAADTAVYYCARETGGSGHWYFDLWGRGNLVTVSS
VL: DIQMTQSPSSLSASVGDRVTITCRASQSISSYLIWYQQKPGQAPRLLIYAASSLQSGVPSRFSGSGSGTDFTLTISSLQPEDFATYYCHQSYSTPWTFGQGTKVEIKR
notes: IgG1/kappa
For B3, the binding result with human Her2-His [2] was “no binding (tested: 1 µg/mL, 200 ng/mL, and 40 ng/mL)”; with human EGFR-His [4] it was “no binding (tested: 1 µg/mL, 200 ng/mL, and 40 ng/mL)”; with human Her4-His [9], “no binding (tested: 1 µg/mL, 200 ng/mL, and 40 ng/mL)”. The OD450 with human EGFR-His [3] is 0.051; with human Her4-His [5] it was 0.05; in the assay with human Her4-His [6], 0.051; with human Her2-His [8], 0.05; in the assay with human EGFR-His [12] it was 0.05; in the assay with human EGFR-His [13], 0.051. Further, the OD450 in the assay with human Her3-his [15] was found to be 0.427; with human Her3-his [16], 0.306; with human Her2-His [17], 0.05; with human Her3-his [18] it was 0.407; with human Her2-His [19] it was 0.051; in the assay with human Her4-His [20] it was 0.051. For the same molecule, the EC50 in the assay with monkey Her3-his amounted to 0.0439 nM; with rat Her3-his, 0.225 nM; with human Her3-his [7], 0.0782 nM; in assay [10], 2.59 nM. In addition, the “Maximum MFI” value in assay [10] turned out to be 54800 MFI. The molecule also gave a Kd with human Her3-his [14] of 6.81 nM. Further, the koff with human Her3-his [14] turned out to be 0.00124 s⁻¹. The molecule also showed a kon in the assay with human Her3-his [14] of 182000 M⁻¹ s⁻¹.
